Experimental findings from PMC8996148, “Crystal structure of the ternary complex of Leishmania major pteridine reductase 1 with the cofactor NADP^+/NADPH and the substrate folic acid” (Acta Crystallographica. Section F, Structural Biology …, 2022) are described below.

This data set deals with the molecule itself. Description: crystal structure; pre-formed crystals of the native enzyme (sitting drop, 293 K, 12% PEG 4600, 100 mM sodium acetate pH 5.5, 120-160 mM calcium acetate) soaked with 2 mM folate for 15 min; space group P212121, four copies per asymmetric unit; 1.81 Å.

B1: Leishmania major pteridine reductase 1 (enzyme)
chain: MTAPTVPVALVTGAAKRLGRSIAEGLHAEGYAVCLHYHRSAAEANALSATLNARRPNSAITVQADLSNVATAPVSGADGSAPVTLFTRCAELVAACYTHWGRCDVLVNNASSFYPTPLLRNDEDGHEPCVGDREAMETATADLFGSNAIAPYFLIKAFAHRVAGTPAKHRGTNYSIINMVDAMTNQPLLGYTIYTMAKGALEGLTRSAALELAPLQIRVNGVGPGLSVLVDDMPPAVWEGHRSKVPLYQRDSSAAEVSDVVIFLCSSKAKYITGTCVKVDGGYSLTRA
notes: Pteridine reductase 1, Leishmania major, UniProtKB Q01782; codon-optimized synthetic DNA in pET-15b; also called LmPTR1; PTR1
As usually defined, the stoichiometry N is the number of molecules, sites or subunits per partner or assembly. Regarding B1, the “stoichiometry N” value was found to be 4.
